Here are results for one molecule from patent publication US20200325187A1 (Genentech, published 2020).

One assay has as its target T1, PIGF-2 (human, UniProt P49763-3 19-170).
T1 construct: also called P1Gf-2; P1GF
T1 sequence (looked up): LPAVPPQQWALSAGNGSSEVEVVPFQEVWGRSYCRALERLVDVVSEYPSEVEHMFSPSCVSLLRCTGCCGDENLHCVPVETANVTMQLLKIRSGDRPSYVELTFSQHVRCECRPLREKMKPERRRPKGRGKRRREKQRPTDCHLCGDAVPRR
In words: competition ELISA: PIGF-2 coated, constant Flt-1 receptor, peptide titrated. In general terms: In an ELISA, binding on a coated surface is turned into a signal by an enzyme label.

In assay [1] the target is T2, hVEGF-A (8-109) (human, UniProt P15692 214-315).
T2 sequence (looked up): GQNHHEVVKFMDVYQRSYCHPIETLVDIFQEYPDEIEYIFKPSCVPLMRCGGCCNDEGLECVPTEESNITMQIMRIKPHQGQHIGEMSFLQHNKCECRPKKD
Kind of assay: competition ELISA: VEGF-A (8-109) coated, constant Flt-1 receptor, peptide titrated; blocked ligand: Flt-1. The procedure:
(§1) Binding specificity of each peptide was established by competition ELISA. […] After blocking with block buffer (PBS with 0.5% BSA and 0.05% TWEEN®20) for 2 hours at room temperature, the receptor-Fc fusions or biotinylated receptors were serially diluted using assay buffer (PBS with 0.5% BSA and 0.05% TWEEN®20) and incubated for 1 hour at room temperature. […] Competition ELISA was conducted in an identical fashion as described above except after blocking, a mixture of serially diluted peptide containing a constant concentration of receptor-Fc fusion or biotinylated receptor (concentration of receptor was set to EC₆₀) was added and incubated for 1 hour. All recombinant human proteins and antibodies were purchased from R &D Systems (Minneapolis, Minn.).

The target in assay [2] is T2, hVEGF-A (8-109). In words: competition ELISA: VEGF-A (8-109) coated, constant KDR receptor, peptide titrated; blocked ligand: KDR. The procedure: as §1
Another assay concerns the target T3, VEGF-B (human, UniProt P49765-2 22-188, limits assumed).
T3 sequence (looked up): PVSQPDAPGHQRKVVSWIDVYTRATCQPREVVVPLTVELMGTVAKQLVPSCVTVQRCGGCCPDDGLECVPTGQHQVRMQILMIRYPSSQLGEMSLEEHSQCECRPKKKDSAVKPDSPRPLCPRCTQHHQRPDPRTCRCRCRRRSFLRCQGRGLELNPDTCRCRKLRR
In words: competition ELISA: VEGF-B coated, constant Flt-1 receptor, peptide titrated.

Assay [3] deals with T4, hVEGF-A (human, UniProt P15692-4 27-191, limits assumed).
T4 construct: also called human VEGF-A; WT
Kind of assay: SPR. The procedure: (§2) Depending on the format of the assay either a streptavidin sensor (SA) or a dextran-coated (CM5) sensor was utilized as described below.
(§3) Reaction was then quenched by addition of 10 molar excess of Glycine pH 8.0 and the sample was buffer exchanged into PBS using an Amicon 0.5 mL 3000 MWCO ultra-centrifugal filters (EMD Millipore). The biotinylation state of the protein was verified by LC-MS analysis. Biotinylated VEGF-A was then captured on the surface until a resonance unit (RU) signal of about ˜400. For immobilization of VEGF-A on CM5 sensor, the surface was first activated with a mixture of N-ethyl-N′-(3-dimethylaminopropyl)carbodiimide hydrochloride and N-hydroxysuccinimide (EDC/NHS) according to the supplier instructions. VEGF-A was then diluted into coupling buffer (0.1 M Acetate Buffer, pH 5.0) and injected until the signal reached about ˜400 RU followed by a wash with 1 M ethanolamine pH 8.0 to quench remaining activated sites.
A general note: SPR reads the build-up and loss of mass on a sensor chip optically.

For a further assay, the target named is PDGF-ββ (human, UniProt P01127 82-190). Kind of assay: competition ELISA: PDGF coated, constant PDGFR receptor, peptide titrated.
The next assay addresses T5, VEGF-C (human, UniProt P49767 103-227, limits assumed).
T5 sequence (looked up): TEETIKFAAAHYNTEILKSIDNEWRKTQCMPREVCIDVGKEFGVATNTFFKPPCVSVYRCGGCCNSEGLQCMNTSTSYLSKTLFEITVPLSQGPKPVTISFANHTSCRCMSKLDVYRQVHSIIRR
In words: competition ELISA: VEGF-C coated, constant Flt-4 receptor, peptide titrated.

Assay [4] concerns the target T4, hVEGF-A. In words: KDR-VEGF competition ELISA.
The target of assay [5] is T6, human VEGF-A 165 (human, UniProt P15692-4 27-191). Kind of assay: competition ELISA: VEGF-A 165 coated, constant KDR receptor, peptide titrated; blocked ligand: KDR. The procedure:
as §1

For assay [6], the target named is T6, human VEGF-A 165. The assay is described as above. The procedure:
as §1
Target sequence in this assay (P15692 other isoform, or with tags, fused parts or gaps limits assumed): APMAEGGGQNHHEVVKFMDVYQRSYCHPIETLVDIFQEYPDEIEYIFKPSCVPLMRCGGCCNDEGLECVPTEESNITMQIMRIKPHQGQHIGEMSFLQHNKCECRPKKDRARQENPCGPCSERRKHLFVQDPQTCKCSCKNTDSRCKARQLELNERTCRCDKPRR
This is another data set of the same source.

For assay [7], the target named is T2, hVEGF-A (8-109). In words: competition ELISA: VEGF-A (8-109) coated, constant KDR receptor, peptide titrated; blocked ligand: KDR. The procedure:
as §1
The source holds these as a separate data set.

Assay [8] has as its target T4, hVEGF-A. In words: cell-based or functional assay.
For another assay, the target named is T7, hVEGF-A Q89A (human, UniProt P15692-4 34-135, Q89A).
T7 construct: position probably counted on the mature protein
T7 sequence (looked up): T2 sequence (looked up) with Q82A
Kind of assay: SPR. The procedure:
as §2, §3

Assay [9] deals with T4, hVEGF-A. Kind of assay: SPR. The procedure: as §2, §3
This is another data set of the same source.

The next assay concerns the target T8, hVEGF-A K48A (human, UniProt P15692-4 34-135, K48A).
T8 construct: position probably counted on the mature protein
T8 sequence (looked up): T2 sequence (looked up) with K41A
Kind of assay: SPR. The procedure: as §2, §3

The next assay addresses T9, hVEGF-A Y21A (human, UniProt P15692-4 34-135, Y21A).
T9 construct: position probably counted on the mature protein
T9 sequence (looked up): T2 sequence (looked up) with Y14A
In words: SPR. The procedure: as §2, §3

Numbering of substitutions follows the chain as printed. Read-outs that look alike come from different tables or passages of the source.

PDGF-ββ, sequence (P01127 82-190): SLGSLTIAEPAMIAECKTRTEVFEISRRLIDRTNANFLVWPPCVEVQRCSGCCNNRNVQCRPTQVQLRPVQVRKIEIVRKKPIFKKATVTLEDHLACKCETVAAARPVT

B1: VEGF_CKP9.54.90 (designed binder)
chain: GCNIMLPFWGCGRDFECLAGCVCQYYQSCG
What is called Kd is the concentration at which binding is half-saturated. Lower therefore signals a tighter complex. A word on the IC50: it is the point on the concentration scale where inhibition reaches its midpoint. Low values mean higher potency, high ones lower potency. On to B1, for which the binding result in the assay with PIGF-2, with VEGF-B, with PDGF-ββ and with VEGF-C was “no binding (tested: 5 µM)” each time. Besides, the “IC50 (read off the curve)” value was ~0.07 µM with hVEGF-A (8-109) [1]; ~0.02 µM with hVEGF-A (8-109) [2]; ~0.03 µM with human VEGF-A 165 [5]; ~0.03 µM in the assay with human VEGF-A 165 [6]; ~0.02 µM with hVEGF-A (8-109) [7]. Also, the Kd with hVEGF-A [3] amounted to 0.4 nM; in the assay with hVEGF-A Q89A, 8.8 nM; in the assay with hVEGF-A [9], 0.37 nM; with hVEGF-A K48A it was 0.19 nM; with hVEGF-A Y21A, 3.5 nM. In the assay with hVEGF-A [4], this molecule yielded an IC50 of 0.2 nM. Moreover, in the assay with hVEGF-A [8], the “Cellular IC50” value worked out at 1.35 nM. For the same molecule, the “FOLD [..] [..] TO VARIANT 9.54.90” value with hVEGF-A [8] was found to be 1 fold.
